The values below come from patent publication US20200164059A1.

The kon is the rate constant with which the complex forms. What is called koff is the first-order rate constant of dissociation. As usually defined, the Kd is the equilibrium constant for the complex coming apart.

Like-named read-outs stand apart in the source and are kept apart here.

Test [1] has as its target EBV gH/gL heterodimer, recombinant ectodomain (Epstein Barr virus). In words: BLI kinetics, pH 7.4, ligand gH/gL, analyte gp42; kon (1/Ms) x10^5.
Test [2] has the same target. Put plainly: BLI kinetics, pH 7.4, ligand gH/gL, analyte gp42; koff (1/s) x10^-3. (In BLI a coated tip is dipped into the sample, and binding shifts an interference pattern.)
For test [3] the target is unchanged. In words: BLI kinetics, pH 7.4, ligand gH/gL, analyte gp42; KA M^-1 x10^7.
For test [4] the target is unchanged. In words: BLI kinetics, pH 7.4, ligand gH/gL, analyte gp42; KD M x10^-9.
Test [5] has the same target. In words: BLI kinetics, pH 5.0, ligand CL40 Mab, analyte gH/gL; KA M^-1 x10^7.
For test [6] the target is unchanged. In words: BLI kinetics, pH 5.0, ligand CL40 Mab, analyte gH/gL; KD M x10^-9.
Test [7] has the same target. In words: BLI kinetics, pH 5.0, ligand CL40 Mab, analyte gH/gL; kon (1/Ms) x10^5.
The target is the same in test [8]. In words: BLI kinetics, pH 7.4, ligand CL40 Mab, analyte gH/gL; KD M x10^-9.
For test [9], the target named is gH/gL on EBV virions (Epstein Barr virus) (UniProt P03231). In words: cell-based or functional assay.
In test [10] the target is EBV gH/gL heterodimer, recombinant ectodomain (Epstein Barr virus). Put plainly: BLI kinetics, pH 5.0, ligand CL40 Mab, analyte gH/gL; koff (1/s) x10^-3.
Test [11] has the same target. In words: BLI kinetics, pH 7.4, ligand CL40 Mab, analyte gH/gL; KA M^-1 x10^7.
Test [12] shares this target. Put plainly: BLI kinetics, pH 7.4, ligand CL40 Mab, analyte gH/gL; koff (1/s) x10^-3.
For test [13] the target is unchanged. Put plainly: BLI kinetics, pH 7.4, ligand CL40 Mab, analyte gH/gL; kon (1/Ms) x10^5.
For test [14] the target is unchanged. Put plainly: BLI kinetics, pH 7.4, ligand CL59 Mab, analyte gH/gL; KA M^-1 x10^7.
Test [15] has the same target. In words: BLI kinetics, pH 7.4, ligand CL59 Mab, analyte gH/gL; koff (1/s) x10^-3.
For test [16] the target is unchanged. Put plainly: BLI kinetics, pH 5.0, ligand CL59 Mab, analyte gH/gL; KA M^-1 x10^7.
The target is the same in test [17]. In words: BLI kinetics, pH 5.0, ligand CL59 Mab, analyte gH/gL; koff (1/s) x10^-3.
Test [18] shares this target. Put plainly: BLI kinetics, pH 5.0, ligand CL59 Mab, analyte gH/gL; KD M x10^-9.
Test [19] has the same target. In words: BLI kinetics, pH 7.4, ligand CL59 Mab, analyte gH/gL; kon (1/Ms) x10^5.
For test [20] the target is unchanged. In words: BLI kinetics, pH 5.0, ligand CL59 Mab, analyte gH/gL; kon (1/Ms) x10^5.
Test [21] has the same target. Put plainly: BLI kinetics, pH 7.4, ligand CL59 Mab, analyte gH/gL; KD M x10^-9.
The target of test [22] is gp350 on EBV virions (Epstein Barr virus) (UniProt P03200). Put plainly: cell-based or functional assay.
For test [23], the target named is EBV gH/gL heterodimer, recombinant ectodomain (Epstein Barr virus). Put plainly: BLI kinetics, pH 7.4, ligand gH/gL, analyte gp42 T175A; KD M x10^-9.
Test [24] shares this target.

For the substance EBV gp42, recombinant ectodomain, the kon in test [1] worked out at 224000 M⁻¹ s⁻¹. Further, the koff in test [2] amounted to 0.000286 s⁻¹. Besides, the Ka in test [3] was 7.84e+08 M⁻¹. Also, in test [4], the Kd came out at 1.28 nM.
As for CL40 (antibody), the Ka in test [5] was determined as 1.67e+08 M⁻¹; in test [11] it was 1.48e+08 M⁻¹. The Kd amounted to 5.99 nM in test [6] and 6.77 nM in test [8]. Besides, the results for the kon in [7] and in [13] were 594000 M⁻¹ s⁻¹ and 469000 M⁻¹ s⁻¹, respectively. Moreover, the concentration reducing B cell (Raji) infection to 50% in test [9] was 14.6 µg/mL. Moreover, in test [9], the fold decrease in fold potency against AMMO1, B cell (Raji) infection came to 100 fold. Moreover, the koff in test [10] was determined as 0.00356 s⁻¹; in test [12], 0.00318 s⁻¹.
For CL59 (antibody), the results for the Ka in [14] and in test [16] were 1.57e+08 M⁻¹ and 1.81e+08 M⁻¹, respectively. The koff in [15] came out at 0.0028 s⁻¹; in [17] it was 0.00186 s⁻¹. In addition, the Kd in [18] was found to be 5.52 nM; in test [21], 6.39 nM. Also, the kon was found to be 438000 M⁻¹ s⁻¹ in test [19] and 337000 M⁻¹ s⁻¹ in test [20].
In test [22], 72A1 (antibody) had a neutralization of B95.8/F EBV infection of B (Raji) cells, IC50 of 0.08 µg/mL.
In the case of gp42 T175A, recombinant ectodomain, the Kd in [23] turned out to be 2.06 nM. Further, in test [24], the Ka was 4.85e+08 M⁻¹, the koff was found to be 0.000299 s⁻¹ and the kon was found to be 145000 M⁻¹ s⁻¹.
